Data reported in patent publication US20160031957A1 (UNITED STATES OF AMERICA AS REPRESENTED BY THE SECRETARY …, published 2016).
Substitutions are numbered along the chain they refer to.

Assays:
Experiment in all cases: interaction in ABC DLBCL cells expressing the RNF31 isoform; method not detailed
[1] = target: T1, wild type RNF31 expressed in ABC DLBCL cells (UniProt Q96EP0 1-1072)
T1 sequence (looked up): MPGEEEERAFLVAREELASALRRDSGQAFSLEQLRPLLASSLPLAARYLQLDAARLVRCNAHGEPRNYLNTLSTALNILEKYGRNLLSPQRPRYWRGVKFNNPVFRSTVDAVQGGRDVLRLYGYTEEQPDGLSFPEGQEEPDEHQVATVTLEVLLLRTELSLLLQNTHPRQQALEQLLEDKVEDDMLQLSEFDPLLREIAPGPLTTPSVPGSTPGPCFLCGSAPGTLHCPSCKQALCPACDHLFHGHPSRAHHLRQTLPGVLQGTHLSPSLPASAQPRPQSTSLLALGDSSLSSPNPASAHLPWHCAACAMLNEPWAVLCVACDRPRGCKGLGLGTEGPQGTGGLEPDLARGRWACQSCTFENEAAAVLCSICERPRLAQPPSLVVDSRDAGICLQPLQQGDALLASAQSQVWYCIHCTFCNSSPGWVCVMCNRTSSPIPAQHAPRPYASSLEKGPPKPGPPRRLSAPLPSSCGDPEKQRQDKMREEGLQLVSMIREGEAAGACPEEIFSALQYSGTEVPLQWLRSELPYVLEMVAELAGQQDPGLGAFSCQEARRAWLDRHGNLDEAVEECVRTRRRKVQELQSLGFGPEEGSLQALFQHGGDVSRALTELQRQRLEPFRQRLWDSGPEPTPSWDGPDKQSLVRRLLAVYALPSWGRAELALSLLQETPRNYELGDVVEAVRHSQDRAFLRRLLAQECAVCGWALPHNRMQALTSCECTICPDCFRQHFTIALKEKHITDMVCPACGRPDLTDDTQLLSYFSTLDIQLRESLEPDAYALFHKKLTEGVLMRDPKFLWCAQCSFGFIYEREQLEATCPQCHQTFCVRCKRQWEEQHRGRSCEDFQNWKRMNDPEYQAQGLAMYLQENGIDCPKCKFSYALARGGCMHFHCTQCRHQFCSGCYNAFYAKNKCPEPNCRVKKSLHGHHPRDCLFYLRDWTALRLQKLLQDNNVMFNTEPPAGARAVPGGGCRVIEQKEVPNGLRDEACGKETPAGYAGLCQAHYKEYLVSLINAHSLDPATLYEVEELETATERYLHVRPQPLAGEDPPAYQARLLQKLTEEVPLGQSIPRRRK

[2] = target: T2, RNF31 Q584H mutant expressed in ABC DLBCL cells (UniProt Q96EP0 1-1072)
T2 construct: Expressed in ABC DLBCL cells; also called RNF31 mutant
T2 sequence (looked up): T1 sequence (looked up) with Q584H

[3] = target: T3, RNF31 Q622L mutant expressed in ABC DLBCL cells (UniProt Q96EP0 1-1072)
T3 construct: Expressed in ABC DLBCL cells; also called RNF31 mutant
T3 sequence (looked up): T1 sequence (looked up) with Q622L

Measured: binding result

B1: MALT1 (enzyme, UniProt Q9UDY8 2-824, looked up)
chain: SLLGDPLQALPPSAAPTGPLLAPPAGATLNRLREPLLRRLSELLDQAPEGRGWRRLAELAGSRGRLRLSCLDLEQCSLKVLEPEGSPSLCLLKLMGEKGCTVTELSDFLQAMEHTEVLQLLSPPGIKITVNPESKAVLAGQFVKLCCRATGHPFVQYQWFKMNKEIPNGNTSELIFNAVHVKDAGFYVCRVNNNFTFEFSQWSQLDVCDIPESFQRSVDGVSESKLQICVEPTSQKLMPGSTLVLQCVAVGSPIPHYQWFKNELPLTHETKKLYMVPYVDLEHQGTYWCHVYNDRDSQDSKKVEIIIGRTDEAVECTEDELNNLGHPDNKEQTTDQPLAKDKVALLIGNMNYREHPKLKAPLVDVYELTNLLRQLDFKVVSLLDLTEYEMRNAVDEFLLLLDKGVYGLLYYAGHGYENFGNSFMVPVDAPNPYRSENCLCVQNILKLMQEKETGLNVFLLDMCRKRNDYDDTIPILDALKVTANIVFGYATCQGAEAFEIQHSGLANGIFMKFLKDRLLEDKKITVLLDEVAEDMGKCHLTKGKQALEIRSSLSEKRALTDPIQGTEYSAESLVRNLQWAKAHELPESMCLKFDCGVQIQLGFAAEFSNVMIIYTSIVYKPPEIIMCDAYVTDFPLDLDIDPKDANKGTPEETGSYLVSKDLPKHCLYTRLSSLQKLKEHLVFTVCLSYQYSGLEDTVEDKQEVNVGKPLIAKLDMHRGLGRKTCFQTCLMSNGPYQSSAATSGGAGHYHSLQDPFHGVYHSHPGNPSNVTPADSCHCSRTPDAFISSFAHHASCHFSRSNVPVETTDEIPFSFSDRLRISEK
notes: Endogenous protein in cell lysates
binds: [1] | [2] | [3]
